How the values were obtained:
[1] = target: T1, CD66c (Cluster of Differentiation 66c) on cells (UniProt P40199 35-320, limits assumed); assay: flow cytometry on CD66c-positive A549 cells, FITC anti-human IgG
T1 construct: whole, on cells; also called CEACAM6; CEACAM 6
T1 sequence (looked up): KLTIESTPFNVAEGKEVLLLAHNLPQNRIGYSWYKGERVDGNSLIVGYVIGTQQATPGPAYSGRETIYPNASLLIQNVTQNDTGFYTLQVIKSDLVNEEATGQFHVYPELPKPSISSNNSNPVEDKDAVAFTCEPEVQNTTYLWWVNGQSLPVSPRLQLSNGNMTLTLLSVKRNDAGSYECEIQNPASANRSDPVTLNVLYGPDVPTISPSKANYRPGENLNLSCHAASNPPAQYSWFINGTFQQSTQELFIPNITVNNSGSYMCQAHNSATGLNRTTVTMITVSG
Description: Each expressed 96 recombinant humanized antibody was poured and reacted in a test tube containing the same amount […] of CD66c-positive A549 non-small-cell lung cancer cell line at 4° C. for 30 minutes, washed with PBS, and treated with FITC-conjugated goat anti-Huma IgG (DiNona Inc, Korea) was added and incubated at 4° C. for 15 minutes. After washing with PBS, the cells were analyzed with a flow cytometer (Stratedigm, S1000EXi) and the results are shown below.
Among the 96 recombinant humanized antibody candidates, eight were firstly selected based on the degree of expression, the presence of aggregation, and the degree of cell binding (Table 9 and Table 10, FIGS. 3A to 3E).

[2] = target: T2, Antigen CD66c (CEACAM6; Sino Biological, Inc.) (UniProt P40199 35-320); assay: ELISA, CEACAM6 coated 100 ng/well, antibody at 1111.11 ng/ml
T2 construct: Bought antigen, coated on the ELISA plate; construct not described; also called CECACAM6 (CD66c) antigen; CD66c antigen
T2 sequence (looked up): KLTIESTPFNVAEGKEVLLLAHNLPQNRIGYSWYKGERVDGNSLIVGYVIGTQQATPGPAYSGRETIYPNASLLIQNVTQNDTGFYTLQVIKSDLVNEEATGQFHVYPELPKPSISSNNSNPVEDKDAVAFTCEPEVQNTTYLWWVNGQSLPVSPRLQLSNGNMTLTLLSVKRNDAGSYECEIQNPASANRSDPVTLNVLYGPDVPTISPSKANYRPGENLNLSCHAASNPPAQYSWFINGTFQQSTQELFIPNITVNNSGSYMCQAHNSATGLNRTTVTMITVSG
Description: (§1) Antigen CD66c (CEACAM6; Sino Biological, Inc.) and CEACAM1 antigen (Sino Biological, Inc.) were coated on a 96-well plate at a rate of 100 ng per well and then blocked. The primary antibody was diluted 3-fold from 10 ug/ml and bound at 37° C. for 1 hour. […] goat anti-Human Ig-HRP conjugate (Jackson ImmunoResearch) as a secondary antibody was diluted 1:10,000 and incubated at 37° C. for 30 minutes. The washing was carried out at three times between each step, and the TMB reaction was performed, stopped with 1N H₂SO₄ solution at the same amount of TMB solution (100 ul) and then OD value was measured at 450 nm.
(§2) As a result of the experiment, the binding affinities to CD66c antigen of the five kinds of recombinant humanized antibodies selected from among 96 kinds of recombinant humanized antibodies are shown in FIG. 4a, Table 12, FIG. 4b and Table 13. FIG. 4a and Table 12 show the binding capacity of the antibodies to CECACAM6 CD66c) antigen, and FIG. 4b and Table 13 are the results for the CEACAM1 (CD66a) antigen.

[3] = target: T2, Antigen CD66c (CEACAM6; Sino …); assay: ELISA, CEACAM6 coated 100 ng/well, antibody at 4.57 ng/ml
Description: as §1, §2

[4] = target: T2, Antigen CD66c (CEACAM6; Sino …); assay: ELISA, CEACAM6 coated 100 ng/well, antibody at 10000.00 ng/ml
Description: as §1, §2

[5] = target: T2, Antigen CD66c (CEACAM6; Sino …); assay: ELISA, CEACAM6 coated 100 ng/well, antibody at 41.15 ng/ml
Description: as §1

[6] = target: T2, Antigen CD66c (CEACAM6; Sino …); assay: ELISA, CEACAM6 coated 100 ng/well, antibody at 3333.33 ng/ml
Description: as §1, §2

[7] = target: T2, Antigen CD66c (CEACAM6; Sino …); assay: ELISA, CEACAM6 coated 100 ng/well, antibody at 0.51 ng/ml
Description: as §1, §2

[8] = target: T2, Antigen CD66c (CEACAM6; Sino …); assay: ELISA, CEACAM6 coated 100 ng/well, antibody at 13.72 ng/ml
Description: as §1, §2

[9] = target: T2, Antigen CD66c (CEACAM6; Sino …); assay: ELISA, CEACAM6 coated 100 ng/well, antibody at 370.37 ng/ml
Description: as §1, §2

[10] = target: T2, Antigen CD66c (CEACAM6; Sino …); assay: ELISA, CEACAM6 coated 100 ng/well, antibody at 1.52 ng/ml
Description: as §1, §2

[11] = target: T2, Antigen CD66c (CEACAM6; Sino …); assay: ELISA, CEACAM6 coated 100 ng/well, antibody at 123.46 ng/ml
Description: as §1, §2

[12] = target: T2, Antigen CD66c (CEACAM6; Sino …); assay: ELISA, CEACAM6 coated 100 ng/well, antibody at 0.17 ng/ml
Description: as §1, §2

B1: recombinant humanized anti-CD66c antibody Protein ID 3004 (Vk7 + VH5) (antibody, human IgG1, V domains shown)
VH: QVQLVQSGAEVKKPGASVKISCKASGYSFTDYTMNWVRQAHGQNLEWIGLINPFHGGTVSNQRFKVKATLTVDVSTNTAYMELSRLRSDDTAVYYCVRGDPVRHYYALAYWGQGTLVTVSS
VL: DIQMTQSPSTLSASVGDRVTITCGASENVYGTLNWYQRKPGKAPKLLIYGATNLADGVPSRFSGSGSGTEYTLTISSLQPDDFATYYCQNVLSAPYTFGGGTKLEIK
notes: also called #41
[1]
  % (% gated × mean), against the chimeric antibody: 85%
  % gated: 71%
  Mean (fluorescence): 541

B2: recombinant humanized anti-CD66c antibody Protein ID 3019 (Vk7 + VH10) (antibody, human IgG1, V domains shown)
VH: QVQLVQSGAEVKKPGASVKVSCKASGYSFTDYTMNWVKQAPGQNLEWIGLINPFHGGTVSNQRFKVKATMTVDVSTNTAYMELSRLRSDDTAVYYCVRGDPVRHYYALAYWGQGTLVTVSS
VL: DIQMTQSPSTLSASVGDRVTITCGASENVYGTLNWYQRKPGKAPKLLIYGATNLADGVPSRFSGSGSGTEYTLTISSLQPDDFATYYCQNVLSAPYTFGGGTKLEIK
notes: also called hu 3019; #51
[2]
  OD 450 nm: 3.34 OD 450 nm
[3]
  OD 450 nm: 1.32 OD 450 nm
[4]
  OD 450 nm: 3.13 OD 450 nm
[5]
  OD 450 nm: 2.45 OD 450 nm
[6]
  OD 450 nm: 3.26 OD 450 nm
[7]
  OD 450 nm: 0.8 OD 450 nm
[1]
  % (% gated × mean), against the chimeric antibody: 86.9%
  % gated: 70%
  Mean (fluorescence): 561
[8]
  OD 450 nm: 1.77 OD 450 nm
[9]
  OD 450 nm: 3.23 OD 450 nm
[10]
  OD 450 nm: 0.95 OD 450 nm
[11]
  OD 450 nm: 3.04 OD 450 nm
[12]
  OD 450 nm: 0.68 OD 450 nm

B3: recombinant humanized anti-CD66c antibody Protein ID 3010 (Vk7 + VH7) (antibody, human IgG1, V domains shown)
VH: QVQLVQSGAEVKKPGASMKISCKASGYSFTDYTMNWVRQAPGQGLEWIGLINPFHGGTVSNQRFKVKATLTVDVSTNTAYMELSRLRSDDTAVYYCVRGDPVRHYYALAYWGQGTLVTVSS
VL: DIQMTQSPSTLSASVGDRVTITCGASENVYGTLNWYQRKPGKAPKLLIYGATNLADGVPSRFSGSGSGTEYTLTISSLQPDDFATYYCQNVLSAPYTFGGGTKLEIK
notes: also called #45
[1]
  % (% gated × mean), against the chimeric antibody: 85.8%
  % gated: 70%
  Mean (fluorescence): 554

B4: recombinant humanized anti-CD66c antibody Protein ID 3046 (Vk8 + VH7) (antibody, human IgG1, V domains shown)
VH: QVQLVQSGAEVKKPGASMKISCKASGYSFTDYTMNWVRQAPGQGLEWIGLINPFHGGTVSNQRFKVKATLTVDVSTNTAYMELSRLRSDDTAVYYCVRGDPVRHYYALAYWGQGTLVTVSS
VL: DIQMTQSPSTLSASVGDRVTITCRASENVYGTLNWYQRKPGKAPKLLIYGATNLADGMPSRFSGSGSGTEYTLTISSLQPDDFATYYCQNVLSAPYTFGGGTKLEIK
notes: also called #74
[1]
  % (% gated × mean), against the chimeric antibody: 82.2%
  % gated: 71%
  Mean (fluorescence): 523
